Changes are numbered by the printed parent chain. Each block holds one binder with its values, some of them ahead of it.
Assays:
[1] = target: T1, human common cytokine receptor γ-chain (IL-2Rγ) (human, UniProt P31785 23-262, limits assumed); assay: P.E. binding ELISA
T1 construct: Recombinant human IL-2Rγ protein, coated (ELISA) or amine-coupled to a CM5 chip (SPR); also called hu IL-2R; CD132
T1 sequence: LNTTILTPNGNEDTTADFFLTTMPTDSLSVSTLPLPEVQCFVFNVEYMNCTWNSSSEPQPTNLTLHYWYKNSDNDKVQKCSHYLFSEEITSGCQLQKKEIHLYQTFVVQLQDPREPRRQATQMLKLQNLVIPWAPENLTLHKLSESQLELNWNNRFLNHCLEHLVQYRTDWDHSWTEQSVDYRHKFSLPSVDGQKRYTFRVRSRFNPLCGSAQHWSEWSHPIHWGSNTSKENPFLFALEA
Protocol: (§1) In a binding ELISA, human or mouse IL-2Rα, IL-2Rβ and IL-2Rγ proteins were coated directly on maxisorp microtiter plates overnight at 4° C. Free binding sites were blocked using 4% Marvel in PBS for 1 hour. Next, 1:5 dilution of P.E. in 1% Marvel/PBS were added to wells and incubated for 1 hour. […] Binding specificity was determined based on O.D. at 450 nm values compared to negative controls.

[2] = target: T2, mouse common cytokine receptor γ-chain (IL-2Rγ) (mouse, UniProt P34902 23-263, limits assumed); assay: P.E. binding ELISA
T2 construct: Recombinant mouse IL-2Rγ protein; also called mo IL-2R; mouse IL-2R gamma
T2 sequence (looked up): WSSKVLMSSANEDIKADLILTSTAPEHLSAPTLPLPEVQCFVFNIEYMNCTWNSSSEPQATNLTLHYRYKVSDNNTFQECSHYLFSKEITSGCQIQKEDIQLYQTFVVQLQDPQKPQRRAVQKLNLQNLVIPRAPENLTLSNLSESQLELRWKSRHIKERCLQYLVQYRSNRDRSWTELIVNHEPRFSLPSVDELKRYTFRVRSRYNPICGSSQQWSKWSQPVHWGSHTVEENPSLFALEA
Protocol: as §1

[3] = target: T1, human common cytokine receptor γ-chain …; assay: P.E. off-rate SPR
Protocol: (§2) SPR was performed to determine dissociation rates using Biacore 3000 instrument (GE Healthcare). Briefly, human and mouse IL-2R proteins were immobilized on carboxylmethyl dextran sensor chip (CM5) at approximately 2500 RUs using amine coupling in acetate buffer (GE Healthcare). The VHH-containing P.E. were loaded with a flow rate of 30 uL/min and the off-rates were measured over a 120s period.

[4] = target: T2, mouse common cytokine receptor γ-chain …; assay: P.E. off-rate SPR
Protocol: as §2

B1: FJ1427_P035MP07B09 (VHH)
VHH: QVQLVESGGGLVQAGGSLRLSCAASGRALSRLAMGWFRQAPGKEREFVVASSWGDDTFYADSVKGRFTFSRDNAKNTVYLQMNSLQPGDTAVYYCAAAPTSFATTAYSSSNSYAYWGQGTQVTVSS
notes: tested as periplasmic extract; also called Clone nr
PE binding ELISA OD [1]: 1.27 OD450 nm | PE binding ELISA OD [2]: 0.082 OD450 nm | koff [3]: 0.00168 s⁻¹ | koff [4]: 0.0127 s⁻¹

B3: FJ1427_P035MP07G05 (VHH)
VHH: B1 VHH with A28T, L32Y, V49A, S51D, D55G, F58Y, K64E, K75N, T77A, G88E
notes: as for B1
PE binding ELISA OD [1]: 0.45 OD450 nm | PE binding ELISA OD [2]: 0.046 OD450 nm | koff [3]: 0.00257 s⁻¹ | koff [4]: 0.191 s⁻¹

B4: FJ1427_P035MP07F05 (VHH)
VHH: B1 VHH with Q1E, A28T, L32Y, K43R, V49T, S51N, D55G, F58Y, K64Q, G88E
notes: as for B1
PE binding ELISA OD [1]: 0.405 OD450 nm | PE binding ELISA OD [2]: 0.045 OD450 nm | koff [3]: 0.00323 s⁻¹ | koff [4]: 0.116 s⁻¹

B5: FJ1427_P035MP07B11 (VHH)
VHH: B1 VHH with K64E, N76S, S125P
notes: as for B1
PE binding ELISA OD [1]: 1.25 OD450 nm | PE binding ELISA OD [2]: 0.246 OD450 nm | koff [3]: 0.00214 s⁻¹ | koff [4]: 0.0114 s⁻¹

B8: FJ1427_P035MP07E08 (VHH)
VHH: QVQLVESGGGLVQAGGSLRLSCAASGRTLSRYAMGWFRQAPGKEREFVAADSWGGDTYYDDSVEGRFTFSRDIAKNAVYLQMNSLQPEDTAVYYCAAAPTSFATTAYSSSNSYAYWGQGTQVTVSS
notes: as for B1
PE binding ELISA OD [1]: 0.642 OD450 nm | PE binding ELISA OD [2]: 0.049 OD450 nm | koff [3]: 0.00229 s⁻¹ | koff [4]: 0.13 s⁻¹

B9: FJ1427_P035MP07D10 (VHH)
VHH: B8 VHH
notes: as for B1
PE binding ELISA OD [1]: 0.734 OD450 nm | PE binding ELISA OD [2]: 0.048 OD450 nm | koff [3]: 0.003 s⁻¹ | koff [4]: 0.125 s⁻¹

B11: FJ1427_P035MP07D06 (VHH)
VHH: B8 VHH with Q1E, A49T, D51N, D60A, E64Q, I73N, A77T
notes: tested as periplasmic extract; also called Clone nr; 620
PE binding ELISA OD [1]: 0.919 OD450 nm | PE binding ELISA OD [2]: 0.045 OD450 nm | koff [3]: 0.00288 s⁻¹ | koff [4]: 0.126 s⁻¹

B13: FJ1427_P035MP07E05 (VHH)
VHH: B8 VHH with Q1E, A49T, D51N, D60A, E64Q, I73N, A77T
notes: as for B1
PE binding ELISA OD [1]: 0.434 OD450 nm | PE binding ELISA OD [2]: 0.045 OD450 nm | koff [3]: 0.00372 s⁻¹ | koff [4]: 0.12 s⁻¹

B14: FJ1427_P035MP07F04 (VHH)
VHH: B8 VHH with Q1E, A49T, D51N, D60A, E64Q, I73N, A77T
notes: tested as periplasmic extract; also called Clone nr; 606
PE binding ELISA OD [1]: 0.4 OD450 nm | PE binding ELISA OD [2]: 0.047 OD450 nm | koff [3]: 0.00296 s⁻¹ | koff [4]: 0.115 s⁻¹

B15: FJ1427_P035MP07F07 (VHH)
VHH: B8 VHH with Q1E, A49T, D51N, D60A, E64Q, I73N, A77T
notes: tested as periplasmic extract; also called Clone nr; 630
PE binding ELISA OD [1]: 0.372 OD450 nm | PE binding ELISA OD [2]: 0.045 OD450 nm | koff [3]: 0.003 s⁻¹ | koff [4]: 0.133 s⁻¹

B18: FJ1427_P035MP07G04 (VHH)
VHH: B8 VHH with Q1E, A49T, D51N, D60A, E64Q, I73N, A77T
notes: as for B1
PE binding ELISA OD [1]: 1.02 OD450 nm | PE binding ELISA OD [2]: 0.047 OD450 nm | koff [3]: 0.00281 s⁻¹ | koff [4]: 0.112 s⁻¹

B21: FJ1427_P035MP07D05 (VHH)
VHH: B8 VHH with Y32N, Y58F, D60A, I73N, A97G, A114R
notes: as for B1
PE binding ELISA OD [1]: 0.733 OD450 nm | PE binding ELISA OD [2]: 0.054 OD450 nm | koff [3]: 0.00153 s⁻¹ | koff [4]: 0.0609 s⁻¹

B23: FJ1427_P035MP07E09 (VHH)
VHH: B8 VHH with V5Q, A49T, D51N, D60A, E64Q, I73N, A77T
notes: as for B1
PE binding ELISA OD [1]: 0.428 OD450 nm | PE binding ELISA OD [2]: 0.045 OD450 nm | koff [3]: 0.0033 s⁻¹ | koff [4]: 0.108 s⁻¹

B25: FJ1427_P035MP07D08 (VHH)
VHH: B8 VHH with V2L, A49T, D51N, D60A, E64Q, I73N, A77T
notes: as for B1
PE binding ELISA OD [1]: 1.03 OD450 nm | PE binding ELISA OD [2]: 0.05 OD450 nm | koff [3]: 0.00263 s⁻¹ | koff [4]: 0.0991 s⁻¹

B28: FJ1427_P035MP07C09 (VHH)
VHH: B8 VHH with F47Y, A50I, Y58F, D60A, I73N, A77E, A97G, A114R
notes: tested as periplasmic extract; also called Clone nr; 643
PE binding ELISA OD [1]: 0.723 OD450 nm | PE binding ELISA OD [2]: 0.755 OD450 nm | koff [3]: 0.00137 s⁻¹ | koff [4]: 0.00703 s⁻¹

Continued, values first:

PE binding ELISA OD [1]: 0.479 OD450 nm | PE binding ELISA OD [2]: 0.047 OD450 nm | koff [3]: 0.00182 s⁻¹ | koff [4]: 0.0128 s⁻¹
B2: FJ1427_P035MP07C05 (VHH)
VHH: B1 VHH with Q1E, A14P
notes: tested as periplasmic extract; also called Clone nr; 611

PE binding ELISA OD [1]: 0.319 OD450 nm | PE binding ELISA OD [2]: 0.045 OD450 nm | koff [3]: 0.00279 s⁻¹ | koff [4]: 0.111 s⁻¹
B6: FJ1427_P035MP07C06 (VHH)
VHH: B8 VHH with A49T, D51N, D60A, E64Q, I73N, K75E, A77T
notes: as for B1

PE binding ELISA OD [1]: 1.34 OD450 nm | PE binding ELISA OD [2]: 0.082 OD450 nm | koff [3]: 0.00162 s⁻¹ | koff [4]: 0.0117 s⁻¹
B7: FJ1427_P035MP07F06 (VHH)
VHH: B1 VHH
notes: as for B1

PE binding ELISA OD [1]: 0.62 OD450 nm | PE binding ELISA OD [2]: 0.061 OD450 nm | koff [3]: 0.00206 s⁻¹ | koff [4]: 0.0132 s⁻¹
B10: FJ1427_P035MP07E02 (VHH)
VHH: B1 VHH
notes: as for B1

PE binding ELISA OD [1]: 1.19 OD450 nm | PE binding ELISA OD [2]: 0.051 OD450 nm | koff [3]: 0.00294 s⁻¹ | koff [4]: 0.113 s⁻¹
B12: FJ1427_P035MP07D01 (VHH)
VHH: B8 VHH with D51N, D60T, I73N, E88G, A114S
notes: tested as periplasmic extract; also called Clone nr; 580

PE binding ELISA OD [1]: 0.67 OD450 nm | PE binding ELISA OD [2]: 0.089 OD450 nm | koff [3]: 0.00199 s⁻¹ | koff [4]: 0.0121 s⁻¹
B16: FJ1427_P035MP07F10 (VHH)
VHH: B8 VHH with V5Q, A50C, Y58F, D60A, I73N, V78T, A97G, A114T, Y115V, S126L
notes: tested as periplasmic extract; also called Clone nr; 654

PE binding ELISA OD [1]: 0.982 OD450 nm | PE binding ELISA OD [2]: 0.046 OD450 nm | koff [3]: 0.00353 s⁻¹ | koff [4]: 0.114 s⁻¹
B17: FJ1427_P035MP07C03 (VHH)
VHH: B8 VHH with Q1E, A49T, D51N, D60A, E64Q, I73N, A77T
notes: as for B1

PE binding ELISA OD [1]: 0.599 OD450 nm | PE binding ELISA OD [2]: 0.057 OD450 nm | koff [3]: 0.00152 s⁻¹ | koff [4]: 0.0127 s⁻¹
B19: FJ1427_P035MP07D02 (VHH)
VHH: B1 VHH with V5Q
notes: tested as periplasmic extract; also called Clone nr; 588

PE binding ELISA OD [1]: 0.729 OD450 nm | PE binding ELISA OD [2]: 0.046 OD450 nm | koff [3]: 0.00259 s⁻¹ | koff [4]: 0.103 s⁻¹
B20: FJ1427_P035MP07E04 (VHH)
VHH: B8 VHH with G16D, A23E, A49T, D51N, D60A, E64Q, I73N, A77T
notes: tested as periplasmic extract; also called Clone nr; 605

PE binding ELISA OD [1]: 0.945 OD450 nm | PE binding ELISA OD [2]: 0.923 OD450 nm | koff [3]: 0.00113 s⁻¹ | koff [4]: 0.00694 s⁻¹
B22: FJ1427_P035MP07C01 (VHH)
VHH: QVQLVESGGGLVQAGDSLRLSCVASGRTLSRCAMGWFRKAPGKEREYVAISSWGGDTFYEDSVEGRFTFSRDNAKNTVYLQMNSLRPEDTAVYYCAAAPTSFATTAYSSSNSYAYWGQGTQVTVSS
notes: as for B1

PE binding ELISA OD [1]: 0.865 OD450 nm | PE binding ELISA OD [2]: 0.045 OD450 nm | koff [3]: 0.00447 s⁻¹ | koff [4]: 0.126 s⁻¹
B24: FJ1427_P035MP07D09 (VHH)
VHH: B8 VHH with Q1E, A49T, D51N, D60A, E64Q, I73N, A77T
notes: as for B1

PE binding ELISA OD [1]: 0.716 OD450 nm | PE binding ELISA OD [2]: 0.059 OD450 nm | koff [3]: 0.00175 s⁻¹ | koff [4]: 0.0501 s⁻¹
B26: FJ1427_P035MP07B10 (VHH)
VHH: B8 VHH with Y58F, D60A, I73N, V78A, V92T, A97G, A114R
notes: tested as periplasmic extract; also called Clone nr; 650

PE binding ELISA OD [1]: 0.83 OD450 nm | PE binding ELISA OD [2]: 0.139 OD450 nm | koff [3]: 0.00156 s⁻¹ | koff [4]: 0.0132 s⁻¹
B27: FJ1427_P035MP07E01 (VHH)
VHH: B8 VHH with V5Q, A50C, Y58F, D60A, I73N, V78T, A97G, A114T, Y115V, S126L
notes: as for B1
